According to patent publication US20220242973A1 (Molecular Partners, published 2022):

T1: Human FAP expressed on the cell surface (WI38, CHO-FAP1.9, U87MG cells) (human, UniProt Q12884 1-760)
T1 construct: whole, on cells; Endogenous on WI38 and U87MG cells; from a human FAP cDNA (OriGene) in CHO-FAP1.9 cells; also called hFAP; FAP+ cells
T1 sequence (looked up): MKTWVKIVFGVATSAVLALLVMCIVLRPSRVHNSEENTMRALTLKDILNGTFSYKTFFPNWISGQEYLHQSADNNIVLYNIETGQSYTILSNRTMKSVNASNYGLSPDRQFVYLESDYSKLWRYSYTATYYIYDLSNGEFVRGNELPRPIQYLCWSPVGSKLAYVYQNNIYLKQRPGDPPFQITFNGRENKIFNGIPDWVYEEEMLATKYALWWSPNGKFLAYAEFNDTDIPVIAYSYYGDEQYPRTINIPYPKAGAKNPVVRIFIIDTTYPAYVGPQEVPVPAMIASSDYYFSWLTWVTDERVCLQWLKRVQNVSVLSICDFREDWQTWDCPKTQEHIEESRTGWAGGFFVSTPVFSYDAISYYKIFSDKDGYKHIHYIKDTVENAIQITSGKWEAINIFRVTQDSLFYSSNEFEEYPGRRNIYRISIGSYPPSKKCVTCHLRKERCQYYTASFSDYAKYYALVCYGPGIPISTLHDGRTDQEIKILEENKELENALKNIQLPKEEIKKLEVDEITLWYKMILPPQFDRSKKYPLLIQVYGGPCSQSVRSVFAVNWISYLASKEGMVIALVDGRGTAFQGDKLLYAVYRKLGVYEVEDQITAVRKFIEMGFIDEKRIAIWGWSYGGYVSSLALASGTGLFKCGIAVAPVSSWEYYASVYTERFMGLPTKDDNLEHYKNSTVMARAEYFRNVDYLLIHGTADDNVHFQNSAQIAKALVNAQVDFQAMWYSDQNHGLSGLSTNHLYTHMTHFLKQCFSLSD

T2: Recombinant human FAP (fibroblast activation protein) (human, UniProt Q12884 26-760)
T2 sequence (looked up): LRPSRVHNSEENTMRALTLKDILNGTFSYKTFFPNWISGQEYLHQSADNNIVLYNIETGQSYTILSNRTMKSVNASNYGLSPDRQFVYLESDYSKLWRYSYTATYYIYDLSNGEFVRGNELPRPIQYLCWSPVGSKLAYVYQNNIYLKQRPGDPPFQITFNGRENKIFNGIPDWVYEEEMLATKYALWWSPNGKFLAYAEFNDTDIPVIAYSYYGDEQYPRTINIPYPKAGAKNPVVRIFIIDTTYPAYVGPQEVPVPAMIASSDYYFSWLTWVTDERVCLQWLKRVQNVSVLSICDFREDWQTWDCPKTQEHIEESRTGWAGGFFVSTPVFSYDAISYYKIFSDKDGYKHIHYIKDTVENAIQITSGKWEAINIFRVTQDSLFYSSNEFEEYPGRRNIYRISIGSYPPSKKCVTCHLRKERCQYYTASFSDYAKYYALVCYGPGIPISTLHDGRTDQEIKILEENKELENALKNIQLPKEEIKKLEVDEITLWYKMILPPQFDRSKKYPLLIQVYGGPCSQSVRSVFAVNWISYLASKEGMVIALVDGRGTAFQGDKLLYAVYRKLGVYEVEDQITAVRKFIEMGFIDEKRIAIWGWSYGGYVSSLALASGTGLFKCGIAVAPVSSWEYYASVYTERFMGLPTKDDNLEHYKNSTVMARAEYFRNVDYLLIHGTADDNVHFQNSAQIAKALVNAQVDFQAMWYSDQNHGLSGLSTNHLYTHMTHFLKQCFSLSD


Assays:
[1] = target: T1, Human FAP expressed on the cell surface …; assay: FACS on WI38 cells
Procedure: Using multi-well plates, 20,000 WI38 cells were added per well in 50 μl of PBS. 50 μl of appropriate dilutions (2× dilution steps) of ankyrin repeat protein was then added to the cells and incubated for 30 minutes on ice. After the ankyrin repeat protein-binding reaction, cells were washed twice with PBS. Direct immunofluorescent detection of the His-tagged ankyrin repeat proteins using Penta-His AF647 conjugate (QIAgen) and determination of live cells using LIVE/DEAD™ Fixable Green Dead Cell Stain Kit (ThermoFisher) were then performed together in one step. The Penta-His AF647 conjugate and the LIVE/DEAD™ Fixable Green dye were applied to the cells together in 1/200 (Penta-His) and 1/1000 (LID Fixable) final dilutions and incubated for 20-30 minutes on ice. After washing the cells with PBS, cells were re-suspended in 1× CellFix™ buffer (BD Biosciences) (10× stock was diluted 1/10 in water). […] Acquisition and FACS analysis, including the determination of median fluorescence intensity (MFI), were done within 5 days after staining using an AttuneNxT instrument. […]
Similarly, binding of the engineered ankyrin repeat proteins, i.e. DARPin® protein #34 and DARPin® protein #35, to FAP-expressing WI38 cells was also tested essentially as described above. Fold increase MFI was calculated by dividing the sample MFI by the MFI of the background control. […]

[2] = target: T2, Recombinant human FAP (fibroblast …); assay: cell-based or functional assay
[3] = target: T1, Human FAP expressed on the cell surface …; assay: FACS on CHO-FAP1.9 cells (human FAP transfectants)
[4] = target: T1, Human FAP expressed on the cell surface …; assay: FACS on FAP-expressing WI38 cells, Penta-His AF647 detection
In short: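 WI38 cells (20,000/well) incubated 30 min on ice with 2-fold dilutions of His-tagged ankyrin repeat proteins, washed, stained with Penta-His AF647 plus live/dead dye, fixed. Median fluorescence by flow cytometry; EC50 from non-linear regression of binding curves.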

Row | Binder | EC50 [1] | FAP activity (%) [2] | EC50 [3] | EC50 [4]
1 | DARPin® protein #35 (designed binder) MRGSHHHHHHGSDLGEKLLVAALYGQDDEVRELLKAGADVNAKDQWGLTPLHKAALQGHLEIVEVLLKAGADVNAKDERGHTPLHWAARFGHLEIVEVLLKAGADVNAQDQKGYTPADLAALWGHEDIAEVLQKAA | 0.994 nM | 90% | 2.02 nM | 
2 | DARPin® protein #34 (designed binder) MRGSHHHHHHGSDLGKKLLEAARAGQDDEVRELLKAGADVNAKDVLGWTPLHLAAFEGHLEIVEVLLKAGADVNAKDKKGWTPLQLAARTGHLEIVEVLLKAGADVNAKDHIGATPLHLAAWQGHPEIVEVLLKAGADVNAQDKSGKTPADLAADAGHEDIAEVLQKAA | 0.736 nM | 93% | 1.19 nM | 
3 | DARPin® protein #36 (designed binder) MRGSHHHHHHGSDLGKKLLEAARAGQDDEVRILLAAGADVNAKDVLGWTPLHLAAFEGHLEIVEVLLKAGADVNAKDKKGWTPLQLAARTGHLEIVEVLLKAGADVNAKDHIGATPLHLAAWQGHPEIVEVLLKAGADVNAQDKSGKTPADLAADAGHEDIAEVLQKLN |  |  |  | 0.235 nM

Now from value to binder:

Row | EC50 [1] | FAP activity (%) [2] | EC50 [3] | EC50 [4] | Binder
4 |  |  |  | 0.118 nM | DARPin® protein #37 (designed binder) MRGSHHHHHHGSDLGEKLLVAALYGQDDEVRILLAAGADVNAKDQWGLTPLHKAALQGHLEIVEVLLKAGADVNAKDERGHTPLHWAARFGHLEIVEVLLKAGADVNAQDQKGYTPADLAALWGHEDIAEVLQKLN
5 |  |  |  | 0.106 nM | DARPin® protein #38 (designed binder) MRGSHHHHHHGSDLGKKLLEAARAGQDDEVRELLKAGADVNAKDEVGRTPLHLAAQIGHLEIVEVLLKAGADVNAKNRWGVTPLHVAAWVGHLEIVEVLLKAGADVNAKDQQGATPLHLAAIRGHLEIVEVLLKAGADVNAQDKSGKTPADLAADAGHEDIAEVLQKLN
6 |  |  |  | 0.203 nM | DARPin® protein #39 (designed binder) MRGSHHHHHHGSDLGKKLLEAARAGQDDEVRELLKAGADVNAKDEWGKTPLHLAAIRGHLEIVEVLLKAGADVNAKDTHGITPLHLAAFVGHLEIVEVLLKAGADVNAKDYLGRTPLHIAAAKGHLEIVEVLLKAGADVNAQDKSGKTPADLAADAGHEDIVEVLQKLN
